# Reference: patent publication US20210388087A1 (Chugai, published 2021)
# Biological target: T1, CD3 epsilon homodimer protein (UniProt P07766 23-126)
# T1 construct: immobilized on Sensor chip CM4 by amine coupling; also called CD3 (CD3 epsilon)
# Assay: SPR (Biacore T200), CD3 epsilon homodimer on CM4 chip, one-arm antibody as analyte, 25 C;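 also: homodimer attached to the sensor surface via amine coupling, HBS-EP+ used as running buffer during binding runs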
# T1 sequence (P07766 23-126): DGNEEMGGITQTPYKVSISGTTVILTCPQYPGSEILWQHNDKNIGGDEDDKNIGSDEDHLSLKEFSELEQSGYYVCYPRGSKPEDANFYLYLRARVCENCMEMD
row,Binder,ratio of amounts bound (altered form / CE115HA000)
1,"CE115HA000 A99L one-arm antibody (antibody, human IgG1, kappa, L234A L235A, N297A, name in Kabat numbering) heavy: QVQLVESGGGVVQPGRSLRLSCAASGFTFSNAWMHWVRQAPGKGLEWVAQIKAKSNNYATYYAESVKGRFTISRDDSKNSLYLQMNSLKTEDTAVYYCRYVHYGLYYGVDAWGQGTTVTVSSASTKGPSVFPLAPSSKSTSGGTAALGCLVKDYFPEPVTVSWNSGALTSGVHTFPAVLQSSGLYSLSSVVTVPSSSLGTQTYICNVNHKPSNTKVDKKVEPKSCDKTHTCPPCPAPEAAGGPSVFLFPPKPKDTLMISRTPEVTCVVVDVSHEDPEVKFNWYVDGVEVHNAKTKPREEQYASTYRVVSVLTVLHQDWLNGKEYKCKVSNKALPAPIEKTISKAKGQPREPQVYTLPPSRCELTKNQVSLSCAVKGFYPSDIAVEWESNGQPENNYKTTPPVLDSDGSFFLVSKLTVDKSRWQQGNVFSCSVMHEALHNHYTQKSLSLSPDYKDDDDK EPKSSDKTHTCPPCPAPELLGGPSVFLFPPKPKDTLMISRTPEVTCVVVDVSHEDPEVKFNWYVDGVEVHNAKTKPREEQYNSTYRVVSVLTVLHQDWLNGKEYKCKVSNKALPAPIEKTISKAKGQPREPQVCTLPPSRDELTKNQVSLWCLVKGFYPSDIAVEWESNGQPENNYKTTPPVLDSDGSFFLYSKLTVDKSRWQQGNVFSCSVMHEALHNRYTQKSLSLSP light: DIVMTQSPLSLPVTPGEPASISCRSSQSLVHSNRNTYLHWYQQKPGQAPRLLIYKVSNRFSGVPDRFSGSGSGTDFTLKISRVEAEDVGVYYCGQGTQVPYTFGQGTKLEIKRTVAAPSVFIFPPSDEQLKSGTASVVCLLNNFYPREAKVQWKVDNALQSGNSQESVTEQDSKDSTYSLSSTLTLSKADYEKHKVYACEVTHQGLSSPVTKSFNRGEC",1.13
2,"CE115HA000 A99T one-arm antibody (antibody, human IgG1, kappa, L234A L235A, N297A, name in Kabat numbering) heavy: QVQLVESGGGVVQPGRSLRLSCAASGFTFSNAWMHWVRQAPGKGLEWVAQIKAKSNNYATYYAESVKGRFTISRDDSKNSLYLQMNSLKTEDTAVYYCRYVHYGTYYGVDAWGQGTTVTVSSASTKGPSVFPLAPSSKSTSGGTAALGCLVKDYFPEPVTVSWNSGALTSGVHTFPAVLQSSGLYSLSSVVTVPSSSLGTQTYICNVNHKPSNTKVDKKVEPKSCDKTHTCPPCPAPEAAGGPSVFLFPPKPKDTLMISRTPEVTCVVVDVSHEDPEVKFNWYVDGVEVHNAKTKPREEQYASTYRVVSVLTVLHQDWLNGKEYKCKVSNKALPAPIEKTISKAKGQPREPQVYTLPPSRCELTKNQVSLSCAVKGFYPSDIAVEWESNGQPENNYKTTPPVLDSDGSFFLVSKLTVDKSRWQQGNVFSCSVMHEALHNHYTQKSLSLSPDYKDDDDK EPKSSDKTHTCPPCPAPELLGGPSVFLFPPKPKDTLMISRTPEVTCVVVDVSHEDPEVKFNWYVDGVEVHNAKTKPREEQYNSTYRVVSVLTVLHQDWLNGKEYKCKVSNKALPAPIEKTISKAKGQPREPQVCTLPPSRDELTKNQVSLWCLVKGFYPSDIAVEWESNGQPENNYKTTPPVLDSDGSFFLYSKLTVDKSRWQQGNVFSCSVMHEALHNRYTQKSLSLSP light: DIVMTQSPLSLPVTPGEPASISCRSSQSLVHSNRNTYLHWYQQKPGQAPRLLIYKVSNRFSGVPDRFSGSGSGTDFTLKISRVEAEDVGVYYCGQGTQVPYTFGQGTKLEIKRTVAAPSVFIFPPSDEQLKSGTASVVCLLNNFYPREAKVQWKVDNALQSGNSQESVTEQDSKDSTYSLSSTLTLSKADYEKHKVYACEVTHQGLSSPVTKSFNRGEC",0.84
3,"CE115HA000 A99Y one-arm antibody (antibody, human IgG1, kappa, L234A L235A, N297A, name in Kabat numbering) heavy: QVQLVESGGGVVQPGRSLRLSCAASGFTFSNAWMHWVRQAPGKGLEWVAQIKAKSNNYATYYAESVKGRFTISRDDSKNSLYLQMNSLKTEDTAVYYCRYVHYGYYYGVDAWGQGTTVTVSSASTKGPSVFPLAPSSKSTSGGTAALGCLVKDYFPEPVTVSWNSGALTSGVHTFPAVLQSSGLYSLSSVVTVPSSSLGTQTYICNVNHKPSNTKVDKKVEPKSCDKTHTCPPCPAPEAAGGPSVFLFPPKPKDTLMISRTPEVTCVVVDVSHEDPEVKFNWYVDGVEVHNAKTKPREEQYASTYRVVSVLTVLHQDWLNGKEYKCKVSNKALPAPIEKTISKAKGQPREPQVYTLPPSRCELTKNQVSLSCAVKGFYPSDIAVEWESNGQPENNYKTTPPVLDSDGSFFLVSKLTVDKSRWQQGNVFSCSVMHEALHNHYTQKSLSLSPDYKDDDDK EPKSSDKTHTCPPCPAPELLGGPSVFLFPPKPKDTLMISRTPEVTCVVVDVSHEDPEVKFNWYVDGVEVHNAKTKPREEQYNSTYRVVSVLTVLHQDWLNGKEYKCKVSNKALPAPIEKTISKAKGQPREPQVCTLPPSRDELTKNQVSLWCLVKGFYPSDIAVEWESNGQPENNYKTTPPVLDSDGSFFLYSKLTVDKSRWQQGNVFSCSVMHEALHNRYTQKSLSLSP light: DIVMTQSPLSLPVTPGEPASISCRSSQSLVHSNRNTYLHWYQQKPGQAPRLLIYKVSNRFSGVPDRFSGSGSGTDFTLKISRVEAEDVGVYYCGQGTQVPYTFGQGTKLEIKRTVAAPSVFIFPPSDEQLKSGTASVVCLLNNFYPREAKVQWKVDNALQSGNSQESVTEQDSKDSTYSLSSTLTLSKADYEKHKVYACEVTHQGLSSPVTKSFNRGEC",1.59
4,"CE115HA000 A102I one-arm antibody (antibody, human IgG1, kappa, L234A L235A, N297A, name in Kabat numbering) heavy: QVQLVESGGGVVQPGRSLRLSCAASGFTFSNAWMHWVRQAPGKGLEWVAQIKAKSNNYATYYAESVKGRFTISRDDSKNSLYLQMNSLKTEDTAVYYCRYVHYGAYYGVDIWGQGTTVTVSSASTKGPSVFPLAPSSKSTSGGTAALGCLVKDYFPEPVTVSWNSGALTSGVHTFPAVLQSSGLYSLSSVVTVPSSSLGTQTYICNVNHKPSNTKVDKKVEPKSCDKTHTCPPCPAPEAAGGPSVFLFPPKPKDTLMISRTPEVTCVVVDVSHEDPEVKFNWYVDGVEVHNAKTKPREEQYASTYRVVSVLTVLHQDWLNGKEYKCKVSNKALPAPIEKTISKAKGQPREPQVYTLPPSRCELTKNQVSLSCAVKGFYPSDIAVEWESNGQPENNYKTTPPVLDSDGSFFLVSKLTVDKSRWQQGNVFSCSVMHEALHNHYTQKSLSLSPDYKDDDDK EPKSSDKTHTCPPCPAPELLGGPSVFLFPPKPKDTLMISRTPEVTCVVVDVSHEDPEVKFNWYVDGVEVHNAKTKPREEQYNSTYRVVSVLTVLHQDWLNGKEYKCKVSNKALPAPIEKTISKAKGQPREPQVCTLPPSRDELTKNQVSLWCLVKGFYPSDIAVEWESNGQPENNYKTTPPVLDSDGSFFLYSKLTVDKSRWQQGNVFSCSVMHEALHNRYTQKSLSLSP light: DIVMTQSPLSLPVTPGEPASISCRSSQSLVHSNRNTYLHWYQQKPGQAPRLLIYKVSNRFSGVPDRFSGSGSGTDFTLKISRVEAEDVGVYYCGQGTQVPYTFGQGTKLEIKRTVAAPSVFIFPPSDEQLKSGTASVVCLLNNFYPREAKVQWKVDNALQSGNSQESVTEQDSKDSTYSLSSTLTLSKADYEKHKVYACEVTHQGLSSPVTKSFNRGEC",1.48
5,"CE115HA000 A99Q one-arm antibody (antibody, human IgG1, kappa, L234A L235A, N297A, name in Kabat numbering) heavy: QVQLVESGGGVVQPGRSLRLSCAASGFTFSNAWMHWVRQAPGKGLEWVAQIKAKSNNYATYYAESVKGRFTISRDDSKNSLYLQMNSLKTEDTAVYYCRYVHYGQYYGVDAWGQGTTVTVSSASTKGPSVFPLAPSSKSTSGGTAALGCLVKDYFPEPVTVSWNSGALTSGVHTFPAVLQSSGLYSLSSVVTVPSSSLGTQTYICNVNHKPSNTKVDKKVEPKSCDKTHTCPPCPAPEAAGGPSVFLFPPKPKDTLMISRTPEVTCVVVDVSHEDPEVKFNWYVDGVEVHNAKTKPREEQYASTYRVVSVLTVLHQDWLNGKEYKCKVSNKALPAPIEKTISKAKGQPREPQVYTLPPSRCELTKNQVSLSCAVKGFYPSDIAVEWESNGQPENNYKTTPPVLDSDGSFFLVSKLTVDKSRWQQGNVFSCSVMHEALHNHYTQKSLSLSPDYKDDDDK EPKSSDKTHTCPPCPAPELLGGPSVFLFPPKPKDTLMISRTPEVTCVVVDVSHEDPEVKFNWYVDGVEVHNAKTKPREEQYNSTYRVVSVLTVLHQDWLNGKEYKCKVSNKALPAPIEKTISKAKGQPREPQVCTLPPSRDELTKNQVSLWCLVKGFYPSDIAVEWESNGQPENNYKTTPPVLDSDGSFFLYSKLTVDKSRWQQGNVFSCSVMHEALHNRYTQKSLSLSP light: DIVMTQSPLSLPVTPGEPASISCRSSQSLVHSNRNTYLHWYQQKPGQAPRLLIYKVSNRFSGVPDRFSGSGSGTDFTLKISRVEAEDVGVYYCGQGTQVPYTFGQGTKLEIKRTVAAPSVFIFPPSDEQLKSGTASVVCLLNNFYPREAKVQWKVDNALQSGNSQESVTEQDSKDSTYSLSSTLTLSKADYEKHKVYACEVTHQGLSSPVTKSFNRGEC",0.91
6,"CE115HA000 A99S one-arm antibody (antibody, human IgG1, kappa, L234A L235A, N297A, name in Kabat numbering) heavy: QVQLVESGGGVVQPGRSLRLSCAASGFTFSNAWMHWVRQAPGKGLEWVAQIKAKSNNYATYYAESVKGRFTISRDDSKNSLYLQMNSLKTEDTAVYYCRYVHYGSYYGVDAWGQGTTVTVSSASTKGPSVFPLAPSSKSTSGGTAALGCLVKDYFPEPVTVSWNSGALTSGVHTFPAVLQSSGLYSLSSVVTVPSSSLGTQTYICNVNHKPSNTKVDKKVEPKSCDKTHTCPPCPAPEAAGGPSVFLFPPKPKDTLMISRTPEVTCVVVDVSHEDPEVKFNWYVDGVEVHNAKTKPREEQYASTYRVVSVLTVLHQDWLNGKEYKCKVSNKALPAPIEKTISKAKGQPREPQVYTLPPSRCELTKNQVSLSCAVKGFYPSDIAVEWESNGQPENNYKTTPPVLDSDGSFFLVSKLTVDKSRWQQGNVFSCSVMHEALHNHYTQKSLSLSPDYKDDDDK EPKSSDKTHTCPPCPAPELLGGPSVFLFPPKPKDTLMISRTPEVTCVVVDVSHEDPEVKFNWYVDGVEVHNAKTKPREEQYNSTYRVVSVLTVLHQDWLNGKEYKCKVSNKALPAPIEKTISKAKGQPREPQVCTLPPSRDELTKNQVSLWCLVKGFYPSDIAVEWESNGQPENNYKTTPPVLDSDGSFFLYSKLTVDKSRWQQGNVFSCSVMHEALHNRYTQKSLSLSP light: DIVMTQSPLSLPVTPGEPASISCRSSQSLVHSNRNTYLHWYQQKPGQAPRLLIYKVSNRFSGVPDRFSGSGSGTDFTLKISRVEAEDVGVYYCGQGTQVPYTFGQGTKLEIKRTVAAPSVFIFPPSDEQLKSGTASVVCLLNNFYPREAKVQWKVDNALQSGNSQESVTEQDSKDSTYSLSSTLTLSKADYEKHKVYACEVTHQGLSSPVTKSFNRGEC",0.82
